± gives the uncertainty stated by the source.

The series in a line: self-splicing fitness, log relative to wild type (ln ratio); higher = more splicing; Tetrahymena group I intron in knt gene, E. coli kanamycin selection, DiMSum; sequences stand for … in CUCUCU…GGAGGGAAAAGUUAUCAGGCAUGCACCUGGUAGCUAGUCUUUAAACCAAUAGAUUGCAUCGGUUUAAAAGGCAAGACCGUCAAAUUGCGGGAAAGGGGUCAACAGCCGUUCAGUACCAAGUCUCAGGGGAAACUUUGAGAUGGCCUUGCAAAGGGUAUGGUAAUAAGCUGACGGACAUGGUCCUAACCACGCAGCCAAGUCCUAAGUCAACAGAUCUUCUGUUGAUAUGGAUGCAGUUCACAGACUAAAUGUCGGUCGGGGAAGAUGUAUUCUUCUCAUAAGAUAUAGUCGGACCUCUCCUUAAUGGGAGCUAGCGGAUGAAGUGAUGCAACACUGGAGCCGCUGGGAACUAAUUUGUAUGCGAAAGUAUAUUGAUUAGUUUUGGAGUACUCGUGGUCG
The method, boiled down:
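Fitness was computed with DiMSum as the error-weighted combination of replicate fold changes, kanamycin versus none, each normalised to wild type. The library randomised all eight intron nucleotides of the P1ex region, with the intron placed in the knt kanamycin-resistance gene on pET-22b(+) in E. coli BL21(DE3). Six replicate transformations were grown overnight at 37°C or 30°C on LB agar with or without 25 μg/mL kanamycin, plus 100 μg/mL carbenicillin, 50 μM IPTG and 0.2% rhamnose. Pooled colonies were amplicon-sequenced on an Illumina HiSeq 2500.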

Take CUCUAGCAAUAUUACGGAAA: the “self-splicing fitness (ln)” value reads like this: (30 °C) -3.74 ± 0.3; (37 °C) -3.54 ± 0.23.
Consider CAGCAGCAAUAUUACGUUGC, for which the “self-splicing fitness (ln)” value (30 °C) was -2.61 ± 0.27 and the “self-splicing fitness (ln)” value (37 °C) was -2.11 ± 0.2.
As to CCUGAGCAAUAUUACGACAC, the “self-splicing fitness (ln)” value (30 °C) was -2.49 ± 0.49 and the “self-splicing fitness (ln)” value (37 °C) was -2.19 ± 0.28.
Regarding AUUCAGCAAUAUUACGUUAU, the “self-splicing fitness (ln)” value is -1.22 ± 0.079 (30 °C) and 0.0898 ± 0.095 (37 °C).
GAACAGCAAUAUUACGUCAU: the “self-splicing fitness (ln)” value runs as follows: (30 °C) -0.993 ± 0.069; (37 °C) -0.47 ± 0.084.
The corresponding values for GACAAGCAAUAUUACGACCU are 0.335 ± 0.11 and -0.133 ± 0.12.
For AAAUAGCAAUAUUACGACAC, the “self-splicing fitness (ln)” value is -1 ± 0.11 (30 °C) and 0.319 ± 0.12 (37 °C).
Consider UAAAAGCAAUAUUACGUUAG, for which the “self-splicing fitness (ln)” value was -1.37 ± 0.069 (30 °C) and -1.33 ± 0.088 (37 °C).
CUACAGCAAUAUUACGUGUC: the “self-splicing fitness (ln)” value (30 °C) is -3.95 ± 0.14 and the “self-splicing fitness (ln)” value (37 °C) is -2.73 ± 0.15.
Turning to GAUAAGCAAUAUUACGGGUC, the “self-splicing fitness (ln)” value by setting is: (30 °C) -3.26 ± 0.14; (37 °C) -1.81 ± 0.13.
The corresponding values for CGAAAGCAAUAUUACGGUUC are -3.34 ± 0.16 and -2.33 ± 0.17.
For GAUAAGCAAUAUUACGCUCU, the “self-splicing fitness (ln)” value by setting is: (30 °C) -2.11 ± 0.18; (37 °C) -0.116 ± 0.2.
With AAACAGCAAUAUUACGCGAU, the “self-splicing fitness (ln)” value (30 °C) was -2.98 ± 0.16 and the “self-splicing fitness (ln)” value (37 °C) was -2.42 ± 0.17.
With UCAUAGCAAUAUUACGAGGA, the “self-splicing fitness (ln)” value is -3.42 ± 0.34 (30 °C) and -0.473 ± 0.21 (37 °C).
CUCUAGCAAUAUUACGGGGC: the “self-splicing fitness (ln)” value runs as follows: (30 °C) -2.81 ± 0.27; (37 °C) -2.64 ± 0.41.
On to ACUAAGCAAUAUUACGAGUU, for which the “self-splicing fitness (ln)” value is -3.56 ± 0.15 (30 °C) and -3.42 ± 0.25 (37 °C).
On to GCAUAGCAAUAUUACGUUAU, for which the “self-splicing fitness (ln)” value by setting is: (30 °C) -2.61 ± 0.16; (37 °C) -3.08 ± 0.27.
Consider CUGUAGCAAUAUUACGCAAU, for which the “self-splicing fitness (ln)” value is -2.63 ± 0.36 (30 °C) and -1.99 ± 0.25 (37 °C).
Consider UAACAGCAAUAUUACGGCAU, for which the “self-splicing fitness (ln)” value reads like this: (30 °C) -1.85 ± 0.093; (37 °C) 0.0326 ± 0.093.
As to CAAUAGCAAUAUUACGUUUG, the “self-splicing fitness (ln)” value is, setting by setting: (30 °C) -2.52 ± 0.11; (37 °C) -1.52 ± 0.11.
Turning to GCAAAGCAAUAUUACGAGUA, the “self-splicing fitness (ln)” value reads like this: (30 °C) -2.1 ± 0.087; (37 °C) -1.15 ± 0.086.
Take UGGGAGCAAUAUUACGAAAA: the “self-splicing fitness (ln)” value runs as follows: (30 °C) -2.22 ± 0.31; (37 °C) -2.16 ± 0.34.
Regarding CUUAAGCAAUAUUACGUGAC, the “self-splicing fitness (ln)” value reads like this: (30 °C) -1.91 ± 0.13; (37 °C) -2.06 ± 0.14.
UAUUAGCAAUAUUACGCGGA: the “self-splicing fitness (ln)” value reads like this: (30 °C) -2.1 ± 0.2; (37 °C) -1.08 ± 0.13.
Regarding AAGGAGCAAUAUUACGUCAG, the “self-splicing fitness (ln)” value is -3.29 ± 0.41 (30 °C) and -2.28 ± 0.45 (37 °C).
Take AGGUAGCAAUAUUACGCUGC: the “self-splicing fitness (ln)” value (30 °C) was -3.88 ± 0.042 and the “self-splicing fitness (ln)” value (37 °C) was -2.79 ± 0.054.
In the case of ACGGAGCAAUAUUACGGCUG, the “self-splicing fitness (ln)” value runs as follows: (30 °C) -2.87 ± 0.12; (37 °C) -1.26 ± 0.13.
On to AGACAGCAAUAUUACGCUAC, for which the “self-splicing fitness (ln)” value by setting is: (30 °C) -2.43 ± 0.2; (37 °C) -2.61 ± 0.33.
On to GUAUAGCAAUAUUACGUGGU, for which the “self-splicing fitness (ln)” value is -3.14 ± 0.23 (30 °C) and -1.29 ± 0.15 (37 °C).
On to UGGGAGCAAUAUUACGGGUG, for which the “self-splicing fitness (ln)” value by setting is: (30 °C) -3.33 ± 0.47; (37 °C) -0.981 ± 0.26.
Take AAUAAGCAAUAUUACGCACA: the “self-splicing fitness (ln)” value runs as follows: (30 °C) -0.471 ± 0.099; (37 °C) 0.253 ± 0.13.
Consider ACCGAGCAAUAUUACGCGGU, for which the “self-splicing fitness (ln)” value is -3.02 ± 0.18 (30 °C) and -1.7 ± 0.2 (37 °C).
In the same order, the values of GUCAAGCAAUAUUACGUACG are -2.46 ± 0.14 and -1.9 ± 0.17.
For UCAUAGCAAUAUUACGCCUC, the “self-splicing fitness (ln)” value runs as follows: (30 °C) -2.43 ± 0.31; (37 °C) -1.04 ± 0.2.
ACGGAGCAAUAUUACGGUUA: the “self-splicing fitness (ln)” value (30 °C) is -2.6 ± 0.23 and the “self-splicing fitness (ln)” value (37 °C) was -2.2 ± 0.15.
The corresponding values for ACCAAGCAAUAUUACGGAGU are -3.6 ± 0.098 and -2.25 ± 0.12.
Turning to GAGGAGCAAUAUUACGUAAA, the “self-splicing fitness (ln)” value was -3.86 ± 0.17 (30 °C) and -1.32 ± 0.13 (37 °C).
On to ACAAAGCAAUAUUACGUUUC, for which the “self-splicing fitness (ln)” value by setting is: (30 °C) -4.84 ± 0.24; (37 °C) -2.49 ± 0.16.
The corresponding values for AAGGAGCAAUAUUACGAUAU are -3.03 ± 0.32 and -2.37 ± 0.45.
For UCAGAGCAAUAUUACGAGCA, where the note is “37 °C”, the “self-splicing fitness (ln)” value was -2.06 ± 0.48.
UUGCAGCAAUAUUACGGUGU: the “self-splicing fitness (ln)” value by setting is: (30 °C) -4.16 ± 0.21; (37 °C) -2.72 ± 0.18.
Take CGUAAGCAAUAUUACGUGGC: the “self-splicing fitness (ln)” value (30 °C) is -4.85 ± 0.36 and the “self-splicing fitness (ln)” value (37 °C) was -2.39 ± 0.15.
Regarding AGUCAGCAAUAUUACGGAUU, the “self-splicing fitness (ln)” value (30 °C) was -2.25 ± 0.14 and the “self-splicing fitness (ln)” value (37 °C) is -1.42 ± 0.11.
For the sequence GUGUAGCAAUAUUACGUCAA, the “self-splicing fitness (ln)” value is -1.16 ± 0.15 (30 °C) and -1.14 ± 0.15 (37 °C).
Take CCGGAGCAAUAUUACGGAAA: the “self-splicing fitness (ln)” value runs as follows: (30 °C) -1.87 ± 0.18; (37 °C) -2.41 ± 0.3.
The corresponding values for UUCCAGCAAUAUUACGGCUA are 0.12 ± 0.12 and -0.25 ± 0.1.
GUCUAGCAAUAUUACGAGAA: the “self-splicing fitness (ln)” value runs as follows: (30 °C) -1.8 ± 0.39; (37 °C) -0.829 ± 0.27.
Take CAUCAGCAAUAUUACGGUAC: the “self-splicing fitness (ln)” value is -2.95 ± 0.17 (30 °C) and -2.71 ± 0.18 (37 °C).
In the same order, the values of AACCAGCAAUAUUACGCGUG are -1.09 ± 0.057 and -0.149 ± 0.063.
AUCCAGCAAUAUUACGGAGA: the “self-splicing fitness (ln)” value reads like this: (30 °C) -2.43 ± 0.14; (37 °C) -0.986 ± 0.12.
As for UUCGAGCAAUAUUACGUUGA, the “self-splicing fitness (ln)” value (30 °C) was -2.77 ± 0.26 and the “self-splicing fitness (ln)” value (37 °C) is -2 ± 0.21.
Consider UCCUAGCAAUAUUACGCGAU, for which the “self-splicing fitness (ln)” value is, setting by setting: (30 °C) -3.18 ± 0.28; (37 °C) -2.65 ± 0.5.
Turning to UCCAAGCAAUAUUACGUGAU, the “self-splicing fitness (ln)” value reads like this: (30 °C) -3.53 ± 0.12; (37 °C) -1.31 ± 0.097.
The corresponding values for ACCAAGCAAUAUUACGUUCG are -1.88 ± 0.07 and -0.644 ± 0.093.
Consider GCGCAGCAAUAUUACGACCG, for which the “self-splicing fitness (ln)” value (30 °C) is -1.37 ± 0.18 and the “self-splicing fitness (ln)” value (37 °C) was -0.215 ± 0.21.
As to GCUCAGCAAUAUUACGUAAG, the “self-splicing fitness (ln)” value was -0.791 ± 0.043 (30 °C) and -0.374 ± 0.067 (37 °C).
In the same order, the values of CACCAGCAAUAUUACGCUCG are -0.247 ± 0.062 and 0.219 ± 0.087.
As to CUCGAGCAAUAUUACGGUAA, the “self-splicing fitness (ln)” value is -3.49 ± 0.25 (30 °C) and -1.88 ± 0.24 (37 °C).
In the same order, the values of AAAUAGCAAUAUUACGUCCC are -0.4 ± 0.21 and -1.33 ± 0.28.
As for GGGCAGCAAUAUUACGGGGC, the “self-splicing fitness (ln)” value (30 °C) is -0.887 ± 0.22 and the “self-splicing fitness (ln)” value (37 °C) is -1.9 ± 0.42.

For the origin of these results see the supplement of paper PMC7877785.
